The values that follow come from patent US9056079B2, “Molecules interfering with binding of calbindin to inositol monophosphatase for the treatment of mood disorders” (Ben-Gurion University of the Negev Research and Development …, priority 2008, dated 2015).

The test system of data set [1] is IMPase. The conditions noted are these: 30 mM LiCl; cited from earlier work.
The target in data set [2] is T1, IMPase (Bos taurus, UniProt P20456).
T1 sequence (P20456 1-277): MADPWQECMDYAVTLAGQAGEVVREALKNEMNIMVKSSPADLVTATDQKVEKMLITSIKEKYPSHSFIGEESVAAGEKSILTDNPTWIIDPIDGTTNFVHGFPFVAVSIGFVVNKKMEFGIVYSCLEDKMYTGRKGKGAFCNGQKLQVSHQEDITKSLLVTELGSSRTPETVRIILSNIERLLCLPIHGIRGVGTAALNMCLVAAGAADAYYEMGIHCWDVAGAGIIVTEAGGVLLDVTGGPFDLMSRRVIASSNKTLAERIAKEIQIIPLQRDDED
Particulars: read-out: Ki, uncompetitive inhibition of IMPase; cited from earlier work.

For data set [3], the target named is T2, calbindin-activated IMPase (Homo sapiens, UniProt P05937).
T2 sequence (P05937 1-261): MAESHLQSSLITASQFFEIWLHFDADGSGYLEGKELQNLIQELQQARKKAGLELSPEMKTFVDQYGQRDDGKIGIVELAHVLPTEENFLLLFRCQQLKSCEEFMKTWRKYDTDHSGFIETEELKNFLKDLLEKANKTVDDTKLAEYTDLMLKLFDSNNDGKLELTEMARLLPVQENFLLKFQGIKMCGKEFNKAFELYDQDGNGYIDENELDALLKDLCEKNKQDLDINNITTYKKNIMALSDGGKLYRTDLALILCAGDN
Description: IMPase activity in mouse brain crude homogenate in the presence of recombinant human calbindin and short peptides (malachite green phosphate assay). The data set is classed as biochemical. Also on record: from tissue; host or cells: mouse brain crude homogenate; key to IMPase Activity, nean ± SD: fraction of mean control value in each run. The conditions noted are these: for IMPase Activity, nean ± SD / effect of peptide on the enhancement of IMPase activity by calbindin (in words): 10 μM peptide; for IMPase Activity, nean ± SD: values normalized to the mean of the control values in each run; for effect of peptide on the enhancement of IMPase activity by calbindin (in words): 20 μM calbindin. The procedure: (§1) IMPase activity in mouse brain homogenates was measured as previously described [Cryns et al., 2008]. Inorganic phosphate liberated from inositol-1-phosphate was quantified spectrophotometrically in an ELISA reader (iEMS, Labsystems) using the malachite green color reagent. To study the effect of the synthetic peptides on the enhancing interaction between calbindin and IMPase the reaction was carried out in the presence of 20 μM human recombinant calbindin [Thulin and Linse, 1999] (produced by PPS, Rehovot, Israel, using the plasmid kindly donated by S. Linse, Lund, Sweden) and in the presence or absence of 10 μM of each of the peptides. In order to distinguish IMPase activity from non-specific phosphatases the reaction was carried out in the presence and absence of 30 mM LiCl. […] The enzyme activity was calculated as the difference between the activity values in absence and in the presence of Li. Values were normalized to the mean of the control values in each run.

Data set [4] deals with T2, calbindin-activated IMPase. Description: IMPase activity in postmortem human brain crude homogenate in the presence of human recombinant calbindin. The class given is biochemical. Set-up: from tissue; host or cells: postmortem human brain crude homogenate. The procedure: The designed peptides were validated by in vitro IMPase activity measurements. As shown in the Examples (Table 1), IMPase activity of mouse brain crude homogenate is increased by 1.9 ±1.0 (S.D.) fold in the presence of 20 μM human recombinant calbindin. […] Peptides 2 through 4 (SEQ ID NO:2 through SEQ ID NO:4), which included the Lys-Glu-Lys motif or part of it, inhibited the activating interaction similarly to Peptide 1.
as §1

Data set [5] relates to IMPase. Description: Basal IMPase activity in the presence of peptide but in the absence of calbindin (control for nonspecific effect). The data set is classed as biochemical. As to the method: To control for a possible nonspecific effect of short peptides on IMPase activity the enzyme's activity in the presence of Peptide 1 (but in the absence of calbindin) was assessed. […] Furthermore, possibilities were checked that there was a protease activity in the homogenate, and that eventual prior interaction between IMPase and calbindin prevents interference by the active peptides. To this end calbindin was preincubated with the homogenate for 10 min prior to the addition of the substrate. No difference in IMPase activity was found in these two experiments.
as §1, with “peptides.” for “peptides. In order to distinguish IMPase activity from non-specific phosphatases the reaction was carried out in the presence and absence of 30 mM LiCl.”, “Values were normalized to the mean of the control values in each run.” left out

Data set [6] has as its target T2, calbindin-activated IMPase. Also on record: from tissue; host or cells: postmortem human brain crude homogenate. The conditions noted are these: postmortem human prefrontal cortex crude homogenate; recombinant human calbindin; Shamir et al., 2005; cited from earlier work.
Setting [7] is: 20 μM human recombinant calbindin.

Like-named read-outs stand apart in the source and are kept apart here. Where no end group is shown, it is not given here.

As for `[Cl-].[Li+]` [LiCl], the “inhibition of IMPase activity (in words)” value in data set [1] was “totally inhibits IMPase activity”.
Consider `[Li]` [lithium], for which the Ki in data set [2] was 800 µM.
IAAAYP [Peptide 8]: in data set [3] (setting [7]), the “IMPase Activity, nean ± SD” value is 2.3 ± 1.7.
As to IAEAYP [Peptide 6], the “IMPase Activity, nean ± SD” value in data set [3] (setting [7]) is 2.5 ± 1.1.
Still for that read-out and setting: then IAEKYP [Peptide 4], with 1.1 ± 0.6.
Take IKAKYP [Peptide 2]: the “IMPase Activity, nean ± SD” value in data set [3] (setting [7]) was determined as 0.9 ± 0.5.
Turning to IKEAYP [Peptide 3], in data set [3] (setting [7]), the “IMPase Activity, nean ± SD” value is recorded as 1.0 ± 0.5.
In the case of “IKEKYP [Peptide 1, hexapeptide identical to residues 58-63 of IMPase]”, the “effect of peptide on calbindin-activated IMPase (in words)” value in data set [4] is “abolished this effect”. Further, in data set [3], the “effect of peptide on the enhancement of IMPase activity by calbindin (in words)” value (“effect of peptide … by calbindin (in words)” for short) is on record as “strongly reduced”. Moreover, the “IMPase Activity, nean ± SD” value in data set [3] (setting [7]) was found to be 1.2 ± 0.9. In data set [5], the “effect on basal activity of IMPase” value was “did not affect the basal activity of IMPase”.
“Ile-Lys-Glu-Lys-Tyr (IKEKY; Peptide derived from the segment including residues 55-66 of IMPase) [Peptide 9]”: in data set [3], the “effect of peptide … by calbindin (in words)” value is listed as “did not interfere with the enhancement of IMPase activity by calbindin”. The “IMPase Activity, nean ± SD” value in data set [3] (setting [7]) is on record as 1.9 ± 0.6.
For KHIKPS [Peptide 7], the “IMPase Activity, nean ± SD” value in data set [3] (setting [7]) is 1.4 ± 0.2.
As for “Lys-Glu-Lys (KEK; Peptide derived from the segment including residues 55-66 of IMPase) [Peptide 10]”, the “effect of peptide … by calbindin (in words)” value in data set [3] is reported as “did not interfere with the enhancement of IMPase activity by calbindin”. Besides, the “IMPase Activity, nean ± SD” value in data set [3] (setting [7]) amounted to 2.6 ± 1.2.
In the case of SYEHKP [Peptide 5], in data set [3] (setting [7]), the “IMPase Activity, nean ± SD” value worked out at 1.4 ± 0.6.
Take “calbindin: member of the vitamin-D-dependent calcium-binding proteins; binds IMPase residues 55-66 and enhances its activity”: the “increase of IMPase activity by calbindin” value in data set [6] is recorded as 3.5 fold. For the same compound, in data set [4], the “increase of human brain IMPase activity by calbindin” value is “three-fold”. In addition, in data set [3] (setting [7]), the “increase of IMPase activity by calbindin” value is recorded as 1.9 ±1.0 fold and the “IMPase Activity, nean ± SD” value came out at 1.9 ± 1.0.

For orientation: Ki means the dissociation constant of the complex between target and ligand, obtained from inhibition or displacement.
